This passage reports fold change in RU over the G2/G4 value results from publication PMC2133180.

The target of the assay is perlecan purified from Englebreth-Holm-Swarm tumor (UniProt Q05793). Description: SPR. For orientation: In SPR one partner is held on a chip, and binding of the other changes the refractive index at the surface.
UniProt Q05793, sequence (Q05793 22-3707): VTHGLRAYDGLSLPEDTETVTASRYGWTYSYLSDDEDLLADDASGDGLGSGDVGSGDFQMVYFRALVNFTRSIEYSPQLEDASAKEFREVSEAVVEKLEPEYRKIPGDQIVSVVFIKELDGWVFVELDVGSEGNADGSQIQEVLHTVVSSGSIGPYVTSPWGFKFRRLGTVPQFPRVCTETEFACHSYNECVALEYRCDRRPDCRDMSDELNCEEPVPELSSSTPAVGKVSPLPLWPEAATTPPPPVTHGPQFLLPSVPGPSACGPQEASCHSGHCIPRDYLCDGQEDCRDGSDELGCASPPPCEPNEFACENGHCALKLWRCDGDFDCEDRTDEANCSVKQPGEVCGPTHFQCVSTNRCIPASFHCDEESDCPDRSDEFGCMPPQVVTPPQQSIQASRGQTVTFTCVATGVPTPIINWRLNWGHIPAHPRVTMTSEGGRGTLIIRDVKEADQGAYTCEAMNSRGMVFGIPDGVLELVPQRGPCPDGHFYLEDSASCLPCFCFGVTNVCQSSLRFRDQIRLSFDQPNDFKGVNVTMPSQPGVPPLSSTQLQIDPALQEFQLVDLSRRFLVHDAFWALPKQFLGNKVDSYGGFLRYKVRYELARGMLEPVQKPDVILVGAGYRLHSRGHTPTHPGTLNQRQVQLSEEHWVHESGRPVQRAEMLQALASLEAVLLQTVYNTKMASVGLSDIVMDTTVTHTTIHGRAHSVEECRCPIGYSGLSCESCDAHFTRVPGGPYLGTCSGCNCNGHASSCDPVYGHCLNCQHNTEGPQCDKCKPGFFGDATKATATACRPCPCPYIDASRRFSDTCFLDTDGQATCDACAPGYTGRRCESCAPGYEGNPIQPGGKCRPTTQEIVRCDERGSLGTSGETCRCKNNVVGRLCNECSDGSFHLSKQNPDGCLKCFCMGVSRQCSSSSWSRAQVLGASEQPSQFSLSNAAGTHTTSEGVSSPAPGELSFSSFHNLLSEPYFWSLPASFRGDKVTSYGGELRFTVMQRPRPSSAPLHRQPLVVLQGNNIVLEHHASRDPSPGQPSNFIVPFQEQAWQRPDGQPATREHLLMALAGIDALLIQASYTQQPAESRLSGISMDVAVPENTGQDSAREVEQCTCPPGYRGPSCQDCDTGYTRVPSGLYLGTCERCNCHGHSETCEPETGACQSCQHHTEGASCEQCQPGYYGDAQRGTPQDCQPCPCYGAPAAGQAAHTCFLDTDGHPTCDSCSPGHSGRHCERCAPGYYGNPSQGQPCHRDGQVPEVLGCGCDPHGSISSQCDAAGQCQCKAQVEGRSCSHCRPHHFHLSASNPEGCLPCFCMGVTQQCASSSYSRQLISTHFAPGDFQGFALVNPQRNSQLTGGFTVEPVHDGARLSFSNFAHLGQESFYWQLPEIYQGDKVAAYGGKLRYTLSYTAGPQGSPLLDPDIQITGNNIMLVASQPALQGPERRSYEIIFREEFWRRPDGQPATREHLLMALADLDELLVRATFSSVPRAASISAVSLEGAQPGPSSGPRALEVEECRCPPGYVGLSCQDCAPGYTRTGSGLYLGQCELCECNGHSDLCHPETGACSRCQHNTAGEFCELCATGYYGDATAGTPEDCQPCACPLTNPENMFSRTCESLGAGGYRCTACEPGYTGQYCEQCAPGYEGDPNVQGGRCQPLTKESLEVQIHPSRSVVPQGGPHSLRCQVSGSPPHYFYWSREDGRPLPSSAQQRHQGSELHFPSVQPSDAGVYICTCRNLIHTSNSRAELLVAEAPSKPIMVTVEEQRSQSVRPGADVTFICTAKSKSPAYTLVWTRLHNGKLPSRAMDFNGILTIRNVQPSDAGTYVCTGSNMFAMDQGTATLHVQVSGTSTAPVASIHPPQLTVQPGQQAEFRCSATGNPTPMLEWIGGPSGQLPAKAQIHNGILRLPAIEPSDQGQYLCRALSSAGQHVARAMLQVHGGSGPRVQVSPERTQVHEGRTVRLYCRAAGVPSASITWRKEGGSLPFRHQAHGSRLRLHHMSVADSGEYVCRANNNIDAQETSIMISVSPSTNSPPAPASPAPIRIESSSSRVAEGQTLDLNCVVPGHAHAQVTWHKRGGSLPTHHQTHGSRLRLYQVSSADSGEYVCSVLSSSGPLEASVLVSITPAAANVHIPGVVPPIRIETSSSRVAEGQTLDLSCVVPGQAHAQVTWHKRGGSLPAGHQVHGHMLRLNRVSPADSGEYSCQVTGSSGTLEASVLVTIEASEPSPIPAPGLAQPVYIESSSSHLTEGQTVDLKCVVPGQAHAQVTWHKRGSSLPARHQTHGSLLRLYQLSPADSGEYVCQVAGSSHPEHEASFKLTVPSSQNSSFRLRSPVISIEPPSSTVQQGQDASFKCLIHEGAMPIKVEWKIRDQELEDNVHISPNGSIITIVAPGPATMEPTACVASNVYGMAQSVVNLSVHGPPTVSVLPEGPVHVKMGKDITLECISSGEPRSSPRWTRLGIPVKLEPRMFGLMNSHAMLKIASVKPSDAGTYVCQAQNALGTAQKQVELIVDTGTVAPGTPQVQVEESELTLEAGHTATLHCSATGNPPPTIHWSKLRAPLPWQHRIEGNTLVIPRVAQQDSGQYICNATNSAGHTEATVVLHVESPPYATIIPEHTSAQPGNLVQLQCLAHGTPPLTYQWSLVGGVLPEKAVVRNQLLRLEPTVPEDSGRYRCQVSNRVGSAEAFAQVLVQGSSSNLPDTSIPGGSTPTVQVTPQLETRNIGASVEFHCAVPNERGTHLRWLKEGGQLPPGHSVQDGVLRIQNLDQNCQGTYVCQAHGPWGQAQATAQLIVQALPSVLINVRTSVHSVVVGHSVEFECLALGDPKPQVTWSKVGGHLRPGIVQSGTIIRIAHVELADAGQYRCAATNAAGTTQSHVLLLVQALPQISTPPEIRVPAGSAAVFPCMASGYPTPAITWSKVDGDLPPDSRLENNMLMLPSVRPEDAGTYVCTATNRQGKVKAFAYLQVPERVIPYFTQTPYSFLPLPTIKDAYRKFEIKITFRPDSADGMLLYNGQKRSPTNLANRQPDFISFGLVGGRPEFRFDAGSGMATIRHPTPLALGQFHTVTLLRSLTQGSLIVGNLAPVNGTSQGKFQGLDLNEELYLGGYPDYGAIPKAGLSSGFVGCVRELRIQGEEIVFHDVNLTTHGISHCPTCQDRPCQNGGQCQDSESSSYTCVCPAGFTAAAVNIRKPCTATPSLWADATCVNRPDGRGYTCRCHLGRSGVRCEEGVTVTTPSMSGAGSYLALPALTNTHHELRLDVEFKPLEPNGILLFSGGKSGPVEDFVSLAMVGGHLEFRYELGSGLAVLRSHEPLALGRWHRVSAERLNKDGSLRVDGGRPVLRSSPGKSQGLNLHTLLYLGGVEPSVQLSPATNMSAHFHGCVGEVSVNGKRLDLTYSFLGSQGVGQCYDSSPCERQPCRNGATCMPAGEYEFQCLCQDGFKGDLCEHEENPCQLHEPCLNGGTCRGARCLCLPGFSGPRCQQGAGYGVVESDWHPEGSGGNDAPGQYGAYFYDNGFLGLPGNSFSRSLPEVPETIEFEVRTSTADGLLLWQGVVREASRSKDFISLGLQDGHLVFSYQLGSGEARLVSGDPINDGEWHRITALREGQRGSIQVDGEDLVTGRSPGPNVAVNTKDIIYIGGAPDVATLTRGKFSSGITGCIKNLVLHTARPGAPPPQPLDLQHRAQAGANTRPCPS

With “quail A12 collagenic-tailed acetylcholinesterase (asymmetric form) (complex)”, the fold change in RU over the G2/G4 value amounted to 270 fold.
